Sequences and labels used below:
B1: HDV Ribozyme (parent)
chain: GGCCGGCAUGGUCCCAGCCUCCUCGCUGGCGCCGGCUGGGCAACAUUCCGAGGGGACCGUCCCCUCGGUAAUGGCGAAUGGGACCCA

The variants in the series derive from B1. Nature of the series: self-cleavage, relative activity (ratio to wild type); higher = more cleavage; co-transcriptional.
As to G5C C15U, the self-cleavage is 0.356. The figure for G5C C15A is 0.262; for G5A C61U it is 0.0326. For G5A C61G, the self-cleavage was determined as 0.166.

On to G5A C61A, for which the self-cleavage was determined as 0.0573.

Regarding G5A G73A, the self-cleavage is 0. For the variant G5A G73C, the self-cleavage was found to be 0.268.

Turning to G5A G73U, the self-cleavage stood at 0.108.

G5A A8U: the self-cleavage stood at 0.151. As for G5A A8G, the figure is 0.0692; as for G5A A8C, 0.0519.

Turning to C4U U37G, the self-cleavage stood at 0.

For the variant G5C G34C, the self-cleavage amounted to 0. The figure for G5C G34A is 0.0692. For G5C G34U, the self-cleavage was found to be 0.0426. As for G5A C30U, the figure is 0.0692. As to G5A C32U, the self-cleavage was 0.198. As for G5A C32A, the figure is 0; as for G5A C32G, 0.248. For the variant G5C C33U, the self-cleavage worked out at 0.386. The figure for G5A U69C is 0.208; for G5A U69A it is 0.0519. As for G5A A87U, the figure is 0.218. As for G5A G82U, the figure is 0.0354; as for G5A G82A, 0.0554; as for C4U U12G, 0.465. As to G5A U79A, the self-cleavage is 0.192. In the case of G5A A16U, the self-cleavage worked out at 0.356. The figure for G5A A16C is 0.166; for C4U U23A it is 0.727; for C4U U23G it is 0.302.

Consider G5C C30G, for which the self-cleavage turned out to be 0.0875. As for G5C C30A, the figure is 0; as for G5A C24U, 0.

Turning to G5U C36G, the self-cleavage worked out at 0.128. The figure for G5A C26G is 0.427. As to G5A C26A, the self-cleavage is 0.522. As for C4U G55C, the figure is 0.656; as for C4U G55U, 0.639.

Regarding C4U G55A, the self-cleavage stood at 0.772. The figure for G5A G39C is 0.119; for G5A U20C it is 0; for G5C G39U it is 0.0346.

On to G5C G39A, for which the self-cleavage was 0. The figure for G5C G39C is 0.0462. The figure for G5C A77C is 0; for G5C A77G it is 0.0475.

As to G5U C19G, the self-cleavage turned out to be 0. The figure for G5U C19U is 0.0923. Regarding G5U C19A, the self-cleavage worked out at 0.256.

For G5C U69G, the self-cleavage came to 0.111. The figure for G5C U69A is 0.111; for G5U C15G it is 0. On to G5A U65A, for which the self-cleavage was found to be 0.259.

Take G5A U65G: the self-cleavage came out at 0. As for G5A G52U, the figure is 0.237; as for G5A G53C, 0.302; as for G5A G53A, 0.248. The figure for G5C U47G is 0.0536; for G5C U47C it is 0.0594. As for G5C C13U, the figure is 0.133. Regarding G5C C13A, the self-cleavage stood at 0.0755. As for G5U A70U, the figure is 0.222; as for G5U A70C, 0.415. As for C4U U47G, the figure is 0.88; as for C4U U47C, 0.554. As for G5C A71U, the figure is 0.18; as for G5C A71C, 0.0639.

Turning to G5C A71G, the self-cleavage stood at 0.0923. G5A C85G: the self-cleavage was 0.147. Consider G5A G29A, for which the self-cleavage is 0.155. As for G5A G29C, the figure is 0.0755.

Consider G5A G29U, for which the self-cleavage was found to be 0.0519.

Take C4U G67C: the self-cleavage stood at 0.739. As for C4U G67A, the figure is 0.554; as for C4U G67U, 0.855.

Turning to G5U A8U, the self-cleavage came out at 0.208. The figure for G5U A8G is 0.356.

For the variant G5U A42G, the self-cleavage is 0.249. As for G5U A42U, the self-cleavage came out at 0.208. The figure for G5C C7A is 0.119. As for G5C C7U, the figure is 0.0462.

Regarding G5C C7G, the self-cleavage was 0. The figure for G5C C66A is 0.172.

G5C C66U: the self-cleavage turned out to be 0.106. Take G5C A45U: the self-cleavage was found to be 0.131. As for G5C A45G, the figure is 0.0875; as for G5A G28U, 0; as for G5A G38C, 0.208. As for G5C C24G, the figure is 0.

As to G5C C24U, the self-cleavage is 0.252. With G5A C66G, the self-cleavage worked out at 0.244. As for G5A C66U, the figure is 0.305; as for G5C U23G, 0.0615. As for G5C U23A, the figure is 0; as for G5C U23C, 0.208; as for G5A C36A, 0.0627.

In the case of G5A C36U, the self-cleavage was determined as 0.18. Regarding G5U C24A, the self-cleavage was determined as 0.158. G5U C14A: the self-cleavage turned out to be 0.0791.

In the case of G5U C14G, the self-cleavage was found to be 0.185. As for G5A A43G, the figure is 0.131; as for G5A A43C, 0.0594. For the variant G5A A43U, the self-cleavage stood at 0.089. For the variant G5A G54U, the self-cleavage stood at 0.113. Turning to G5A G54C, the self-cleavage was determined as 0.225. The figure for G5A A83G is 0.297; for G5U C13A it is 0.217. The figure for G5U C13U is 0.115; for G5U C13G it is 0.0978. The figure for C4U G82A is 0.0959; for C4U G82C it is 0.0875; for C4U G82U it is 0.119.

Consider G5A C13U, for which the self-cleavage worked out at 0.107. As for G5A C13G, the figure is 0; as for G5A A45U, 0. The figure for G5A A45C is 0.0462. Take G5C C44U: the self-cleavage came out at 0.0504. As for G5A C86A, the figure is 0.132; as for G5A C86U, 0.396; as for G5A C7A, 0.

With G5A C7U, the self-cleavage was determined as 0.0978. The figure for G5C G76U is 0.378; for G5C G76C it is 0.199; for G5U C33U it is 0.615.

Regarding C4U U27C, the self-cleavage came out at 0.166. As for G5C C21G, the figure is 0.125; as for G5C C21U, 0.0554.

Take G5C G29C: the self-cleavage worked out at 0.0615. The figure for G5A C75G is 0; for G5A C75U it is 0.0346.

As to G5A C75A, the self-cleavage amounted to 0.113. The figure for G5C G6A is 0; for G5C G6C it is 0.151. As for C4U U46C, the figure is 0.403; as for G5A C48U, 0.0405; as for G5C C58G, 0.378. The figure for C4U U72C is 0.554; for C4U U72A it is 0.415; for C4U U60C it is 0.872. For G5C G55A, the self-cleavage came to 0.175. The figure for G5C G55U is 0.17; for G5C G52U it is 0.23; for G5A A71C it is 0.0426. The figure for G5A A71G is 0.

For the variant G5C C75G, the self-cleavage amounted to 0.123. As for G5C C75U, the figure is 0; as for G5C C86A, 0.166. The figure for G5C C49U is 0.0755; for G5C C49A it is 0.178. For G5A U46C, the self-cleavage came to 0.185. As for G5A U46A, the figure is 0. The figure for G5A U23C is 0.0573; for G5A U23A it is 0.342.

On to G5U C18U, for which the self-cleavage worked out at 0.0504.

On to G5U C18G, for which the self-cleavage turned out to be 0. As for G5C G82U, the figure is 0.0594.

In the case of G5A A77G, the self-cleavage worked out at 0. With G5C G68A, the self-cleavage was 0.208.

Take G5C G68C: the self-cleavage came to 0. For G5C C22G, the self-cleavage turned out to be 0.

As for G5C C22U, the self-cleavage is 0.151. The figure for G5U C22G is 0.0615; for C4U G54C it is 0.795. The figure for G5C G11U is 0.115. As for G5A C41A, the figure is 0.0615; as for G5A C41G, 0.
